Data from PMC3084761.

Biological target: ECFP-FKBP38 fusion protein (pECFP-C1-FKBP38), Q14318
Experiment: FRET or BRET; live-cell confocal FRET of ECFP (donor) and EYFP (acceptor) fusions in HEK293 cells transfected 48 h; acceptor/donor plasmid ratios 1:1 to 5:1; FRET efficiency against A/D ratio fitted to a 1:1 binding model
Settings: remark: other sources report otherwise

ECFP-FKBP38 fusion protein (pECFP-C1-FKBP38), Q14318, sequence (Q14318 whole entry, the tested form may be a part): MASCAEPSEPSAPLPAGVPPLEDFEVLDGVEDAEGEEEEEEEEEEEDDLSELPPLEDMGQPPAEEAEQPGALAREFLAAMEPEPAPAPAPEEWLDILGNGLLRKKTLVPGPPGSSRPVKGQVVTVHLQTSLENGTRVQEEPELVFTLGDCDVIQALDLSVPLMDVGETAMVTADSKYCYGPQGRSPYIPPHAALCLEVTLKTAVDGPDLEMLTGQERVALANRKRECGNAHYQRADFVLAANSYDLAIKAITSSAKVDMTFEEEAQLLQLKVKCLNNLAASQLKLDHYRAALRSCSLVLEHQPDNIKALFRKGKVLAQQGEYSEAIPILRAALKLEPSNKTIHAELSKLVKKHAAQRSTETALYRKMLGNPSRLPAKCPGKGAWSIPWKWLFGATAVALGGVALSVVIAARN

maximum FRET efficiency: > 20%
B1: PHD2-EYFP (PHD2 coding sequence in pEYFP-N1), Q9GZT9 1-426 (enzyme)
chain: MANDSGGPGGPSPSERDRQYCELCGKMENLLRCSRCRSSFYCCKEHQRQDWKKHKLVCQGSEGALGHGVGPHQHSGPAPPAAVPPPRAGAREPRKAAARRDNASGDAAKGKVKAKPPADPAAAASPCRAAAGGQGSAVAAEAEPGKEEPPARSSLFQEKANLYPPSNTPGDALSPGGGLRPNGQTKPLPALKLALEYIVPCMNKHGICVVDDFLGKETGQQIGDEVRALHDTGKFTDGQLVSQKSDSSKDIRGDKITWIEGKEPGCETIGLLMSSMDDLIRHCNGKLGSYKINGRTKAMVACYPGNGTGYVRHVDNPNGDGRCVTCIYYLNKDWDAKVSGGILRIFPEGKAQFADIEPKFDRLLFFWSDRRNPHEVQPAYATRYAITVWYFDADERARAKVKYLTGEKGVRVELNKPSDSVGKDVF
